Measurements: US20110033448

Target: T1, hCAP18 (propeptide of LL-37), P49913
T1 chain: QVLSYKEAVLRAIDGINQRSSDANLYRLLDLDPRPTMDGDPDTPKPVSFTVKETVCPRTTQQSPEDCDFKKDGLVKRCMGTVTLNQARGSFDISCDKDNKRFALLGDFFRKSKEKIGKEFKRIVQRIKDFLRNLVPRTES

B1: Proteinase 3 (protein)
chain: IVGGHEAQPHSRPYMASLQMRGNPGSHFCGGTLIHPSFVLTAAHCLRDIPQRLVNVVLGAHNVRTQEPTQQHFSVAQVFLNNYDAENKLNDVLLIQLSSPANLSASVATVQLPQQDQPVPHGTQCLAMGWGRVGAHDPPAQVLQELNVTVVTFFCRPHNICTFVPRRKAGICFGDSGGPLICDGIIQGIDSFVIWGCATRLFPDFFTRVALYVDWIRSTLR
- Western blot of cleavage of the 4 kD LL-37 peptide from hCAP18 in supernatants of activated neutrophils: the cleavage of the 4 kD LL-37 peptide can be blocked by pretreatment of neutrophils with the proteinase 3 inhibitors
